Experimental data from patent US20170291948A1.
Where a chain is given by its changes, count along the chain named. Each block holds one binder with its values, some of them ahead of it.

How the values were obtained:
[1] = target: NRP1 expressed on the surface of cancer cells (NRP1-overexpressing patient-derived cells; U87MG glioblastoma cell line) (human) (UniProt O14786); test: cell-based or functional assay
[2] = target: human NRP1 protein (human) (UniProt O14786); test: SPR, Biacore T100
human NRP1 protein (human), sequence (O14786 other isoform, or with tags, fused parts or gaps limits assumed): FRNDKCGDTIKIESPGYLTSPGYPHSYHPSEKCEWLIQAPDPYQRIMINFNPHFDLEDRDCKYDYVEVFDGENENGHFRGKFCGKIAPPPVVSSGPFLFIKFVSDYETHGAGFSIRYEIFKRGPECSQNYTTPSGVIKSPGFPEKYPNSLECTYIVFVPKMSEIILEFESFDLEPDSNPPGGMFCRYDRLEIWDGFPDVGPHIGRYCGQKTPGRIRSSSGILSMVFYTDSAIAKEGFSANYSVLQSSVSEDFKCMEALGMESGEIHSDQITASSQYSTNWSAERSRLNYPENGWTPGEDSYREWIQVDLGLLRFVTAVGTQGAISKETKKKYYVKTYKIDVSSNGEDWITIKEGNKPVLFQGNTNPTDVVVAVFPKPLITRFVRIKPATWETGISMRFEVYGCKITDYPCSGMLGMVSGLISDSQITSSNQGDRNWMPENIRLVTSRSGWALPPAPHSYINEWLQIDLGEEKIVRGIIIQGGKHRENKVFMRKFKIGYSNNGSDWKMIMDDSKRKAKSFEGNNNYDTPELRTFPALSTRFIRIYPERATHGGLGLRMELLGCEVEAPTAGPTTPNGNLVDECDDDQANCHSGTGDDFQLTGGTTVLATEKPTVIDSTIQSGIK

NRP1 expressed on the surface of cancer cells (NRP1-overexpressing patient-derived cells; U87MG glioblastoma cell line) (human), sequence (O14786 22-923): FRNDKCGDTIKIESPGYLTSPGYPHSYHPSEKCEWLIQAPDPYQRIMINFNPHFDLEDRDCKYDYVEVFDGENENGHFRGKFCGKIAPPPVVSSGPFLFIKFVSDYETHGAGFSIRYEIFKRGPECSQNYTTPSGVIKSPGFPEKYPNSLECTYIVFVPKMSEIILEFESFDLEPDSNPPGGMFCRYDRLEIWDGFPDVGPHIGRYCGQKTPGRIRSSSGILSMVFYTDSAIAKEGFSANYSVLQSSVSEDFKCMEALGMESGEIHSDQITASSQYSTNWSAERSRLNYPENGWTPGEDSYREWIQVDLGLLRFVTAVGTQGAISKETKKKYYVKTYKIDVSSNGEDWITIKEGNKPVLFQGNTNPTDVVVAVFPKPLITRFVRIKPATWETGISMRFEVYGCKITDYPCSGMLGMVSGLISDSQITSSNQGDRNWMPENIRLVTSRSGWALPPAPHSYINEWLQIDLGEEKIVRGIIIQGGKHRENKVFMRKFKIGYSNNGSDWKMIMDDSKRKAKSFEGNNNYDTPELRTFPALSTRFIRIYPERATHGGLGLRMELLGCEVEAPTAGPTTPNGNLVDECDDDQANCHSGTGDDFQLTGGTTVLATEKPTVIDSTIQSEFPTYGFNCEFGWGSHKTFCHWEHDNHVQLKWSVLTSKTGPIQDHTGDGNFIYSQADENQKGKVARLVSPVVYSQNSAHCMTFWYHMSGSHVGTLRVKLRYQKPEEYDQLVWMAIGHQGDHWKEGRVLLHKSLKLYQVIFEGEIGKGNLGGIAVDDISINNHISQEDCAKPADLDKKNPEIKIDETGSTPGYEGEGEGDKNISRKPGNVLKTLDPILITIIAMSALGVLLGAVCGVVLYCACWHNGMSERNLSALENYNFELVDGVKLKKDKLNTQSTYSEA

cell migration of U87MG cells (transwell), untreated control = 100% [1]: 41%
Kd [2]: 89.4 nM
B1: 1A03 scFv antibody fragment (scFv, part only; not given: linker, domain order, His and HA tags, V domains shown, not shown: another chain or arm of the molecule; large carriers; small tags and cut ends)
VH: EVQLLESGGGLVQPGGSLRLSCAASGFTFSSYYMSWVRQAPGKGLEWVSAISPGSSNKYYADSVQGRFTISRDNSKNTLYLQMNSLRAEDTAVYYCARRKKSFDYWGQGTLVTVSS
VL: QSVLTQPPSASGTPGQRVTISCSGPSSNIGNNDVSWYQQLPGTAPKLLIYSDNNRPSGVPDRFSGSKSGTSASLAISGLRSEDEADYYCGAWVASLSAYVFGGGTKLTVL

cell migration of U87MG cells (transwell), untreated control = 100% [1]: 46%
Kd [2]: 295 nM
B2: 3H10 scFv antibody fragment (scFv, part only; not given: linker, domain order, His and HA tags, V domains shown, not shown: another chain or arm of the molecule; large carriers; small tags and cut ends)
VH: B1 VH with Q65K, K101Y, S102M
VL: B1 VL with S23T, P25S, S35Y, N53S, G90A, A91S, V93D, A94S, A98G
